Data published in patent publication US20250289893A1 (OXFORD UNIVERSITY INNOVATION, published 2025).

What was measured:
[1] = molecular target: T1, chimeric CD1a pool B protein [human CD1a lipid binding domain, mouse CD1d Ig domain] (human; mouse, UniProt P06126 18-201; P11609 205-297, limits assumed); assay: ELISA, 0.316 µg/ml antibody
Method: (§1) CD1a-specific antibodies were identified by ELISA. […] 20 μl/well of peroxidase-conjugated goat anti-species IgG Fc-specific F(ab′)2 fragment (Jackson ImmunoResearch), diluted 1:5000 in block buffer was added and incubated at room temperature for 1 hour, followed by washing with wash buffer.
(§2) The antibodies were titrated through a dilution series and compared to a control rabbit IgG antibody. […] Data shown for purified antibodies.

[2] = molecular target: Chinese variant CD1a protein (human) (UniProt P06126); assay: ELISA, 10 µg/ml antibody
[3] = molecular target: T2, human CD1a protein (pool B) (human, UniProt P06126 18-295, limits assumed); assay: ELISA, 1 µg/ml antibody
T2 construct: Recombinant protein of the ELISA (coated) and the Biacore T200 titration; whole entry named; also called human CD1a pool B; full length CD1a
T2 sequence (P06126 18-295 limits assumed): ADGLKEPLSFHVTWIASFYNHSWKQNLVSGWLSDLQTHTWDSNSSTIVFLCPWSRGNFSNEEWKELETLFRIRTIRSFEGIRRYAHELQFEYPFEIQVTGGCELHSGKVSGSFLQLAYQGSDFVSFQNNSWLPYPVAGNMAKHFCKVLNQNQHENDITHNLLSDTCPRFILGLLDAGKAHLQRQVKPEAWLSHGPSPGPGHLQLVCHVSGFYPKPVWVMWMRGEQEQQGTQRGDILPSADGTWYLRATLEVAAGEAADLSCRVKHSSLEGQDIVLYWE
Method: as §1
(§3) The antibodies were titrated through a dilution series and compared to a control rabbit IgG antibody.

[4] = molecular target: T1, chimeric CD1a pool B protein [human …; assay: ELISA, 0.0316 µg/ml antibody
Method: as §1, §2

[5] = molecular target: T3, Cynomolgus monkey CD1a expressed on HEK-293 cells (Cynomolgus monkey, UniProt A0A2K5VQ68 17-326); assay: flow cytometry, HEK-293 cells, 0.1 µg/ml antibody
T3 sequence (A0A2K5VQ68 entry or part of it): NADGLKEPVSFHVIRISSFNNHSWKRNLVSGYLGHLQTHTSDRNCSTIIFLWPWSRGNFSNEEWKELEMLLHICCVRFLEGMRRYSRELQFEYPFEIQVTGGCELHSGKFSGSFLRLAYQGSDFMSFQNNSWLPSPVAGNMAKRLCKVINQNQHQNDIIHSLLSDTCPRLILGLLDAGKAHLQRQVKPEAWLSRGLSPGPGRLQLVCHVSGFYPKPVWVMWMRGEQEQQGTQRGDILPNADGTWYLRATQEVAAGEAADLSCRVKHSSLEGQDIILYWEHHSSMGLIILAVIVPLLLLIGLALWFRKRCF
Method: (§4) Binding to proteins expressed on HEK, C1R and MOLT4 cell lines was assessed. […] The C1R-CD1a, C1R-empty vector and MOLT4 cell lines were washed in 1×PBS on the day required. All cell lines were counted and resuspended in 1×PBS and then stained for 30 minutes at 37° C. using the DiI or DiO cellular stains (Invitrogen). Cells were washed with flow cytometry buffer (1% bovine serum albumin, 2 mM EDTA and 0.1% sodium azide in PBS) before mixing 2 DiI-stained and DiO-stained populations together. The cells (20 μl/well) were then added to dilutions of antibody sample (B cell culture supernatant, TAP supernatant, clone supernatant, purified antibody solution) (20 μl/well) and incubated for 1 hour at 4° C. in a flow cytometry assay plate, before being washed with flow cytometry buffer. 10 μl/well of Alexafluor647-conjugated goat anti-species IgG Fc-specific F(ab′)2 fragment (Jackson ImmunoResearch), diluted 1:2500 in flow cytometry buffer, was added and incubated at 4° C. for 30 minutes, followed by washing with wash buffer. The fluorescence intensity was then measured on an iQue screener PLUS.
(§5) Binding was quantified as fold change in fluorescence intensity geomean over background assessed by flow cytometry.

[6] = molecular target: T4, human CD1c expressed on HEK-293 cells (human, UniProt P29017 18-333; P61769 21-119); assay: flow cytometry, HEK-293 cells
T4 construct: also called HEK - CD1c
Method: as §4
(§6) HEK-293 cells were transiently transfected with human CD1a, CD1b, CD1c or CD1d and co-transfected with human β2M.

[7] = molecular target: T5, human CD1d expressed on HEK-293 cells (human, UniProt P15813 20-335; P61769 21-119); assay: flow cytometry, HEK-293 cells
T5 construct: also called HEK - CD1d
Method: as §4, §6

[8] = molecular target: T6, human CD1b expressed on HEK-293 cells (human, UniProt P29016 18-333; P61769 21-119); assay: flow cytometry, HEK-293 cells
T6 construct: also called HEK - CD1b
Method: as §4, §6

[9] = molecular target: T2, human CD1a protein (pool B); assay: SPR (Biacore T200), antibody captured, human CD1a titrated, 1:1 binding model
Method: The affinity of the purified antibodies to human CD1a was assessed using a Biacore T200 instrument (GE Healthcare) by capturing the antibody to an immobilized anti-species IgG F(ab′)2 followed by titration of human CD1a. Affinipure Goat anti-species IgG-F(ab′)2 fragment specific (Jackson ImmunoResearch) was immobilized on a CM5 Sensor Chip (GE Healthcare) via amine coupling chemistry to a capture level of ˜5000 response units (RUs). HBS-EP+ buffer (10 mM HEPES pH 7.4, 0.15 M NaCl, 3 mM EDTA, 0.05% Surfactant P20, GE Healthcare) was used as the running buffer with a flow rate of 10 μL/min. A 10 μL injection of test antibody at 0.5 μg/mL was used for capture by the immobilized Goat Anti-species Fab.
The surface was regenerated between cycles by injection of 2×10 μL of 40 mM HCl, interspersed by a 10 μL injection of 5 mM NaOH at flowrate of 10 μL/min. Background subtraction binding curves were analyzed using the Biacore T200 evaluation software following standard procedures. Kinetic parameters were determined from the fitting algorithm. This assay was performed at the clone supernatant and purified antibody stage.
Affinity was required to be <100 nM to be considered for progression.

[10] = molecular target: T1, chimeric CD1a pool B protein [human …; assay: ELISA, 3.16 µg/ml antibody
Method: as §1, §2

[11] = molecular target: T2, human CD1a protein (pool B); assay: ELISA, 0.0316 µg/ml antibody
Method: as §1, §3

[12] = molecular target: T7, human CD1a expressed on cells (human, UniProt P06126 17-327; P61769 21-119); assay: flow cytometry, C1R cells, 31.6 µg/ml antibody
T7 construct: also called HEK - CD1a; C1R - CD1a
Method: as §4, §5

[13] = molecular target: T3, Cynomolgus monkey CD1a expressed on …; assay: flow cytometry, HEK-293 cells, 10 µg/ml antibody
Method: as §4, §5

[14] = molecular target: T7, human CD1a expressed on cells; assay: flow cytometry, MOLT4 cells, 10 µg/ml antibody
Method: (§7) CD1a-specific antibodies were identified by flow cytometry. Binding to proteins expressed on HEK, C1R and MOLT4 cell lines was assessed. […] The C1R-CD1a, C1R-empty vector and MOLT4 cell lines were washed in 1×PBS on the day required. All cell lines were counted and resuspended in 1×PBS and then stained for 30 minutes at 37° C. using the DiI or DiO cellular stains (Invitrogen). Cells were washed with flow cytometry buffer (1% bovine serum albumin, 2 mM EDTA and 0.1% sodium azide in PBS) before mixing 2 DiI-stained and DiO-stained populations together. The cells (20 μl/well) were then added to dilutions of antibody sample (B cell culture supernatant, TAP supernatant, clone supernatant, purified antibody solution) (20 μl/well) and incubated for 1 hour at 4° C. in a flow cytometry assay plate, before being washed with flow cytometry buffer. 10 μl/well of Alexafluor647-conjugated goat anti-species IgG Fc-specific F(ab′)2 fragment (Jackson ImmunoResearch), diluted 1:2500 in flow cytometry buffer, was added and incubated at 4° C. for 30 minutes, followed by washing with wash buffer. The fluorescence intensity was then measured on an iQue screener PLUS.
as §5

[15] = molecular target: T8, Cynomolgus monkey CD1a protein (Cynomolgus monkey); assay: ELISA, 0.01 µg/ml antibody
T8 chain: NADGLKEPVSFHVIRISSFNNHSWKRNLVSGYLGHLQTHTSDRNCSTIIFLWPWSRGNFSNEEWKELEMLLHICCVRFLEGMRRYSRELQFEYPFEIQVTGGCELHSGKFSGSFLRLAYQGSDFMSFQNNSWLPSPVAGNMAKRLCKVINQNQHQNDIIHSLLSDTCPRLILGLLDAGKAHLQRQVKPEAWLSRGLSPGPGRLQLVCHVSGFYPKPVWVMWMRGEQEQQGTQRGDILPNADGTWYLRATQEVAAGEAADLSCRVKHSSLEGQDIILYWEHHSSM

[16] = molecular target: T2, human CD1a protein (pool B); assay: ELISA, 0.1 µg/ml antibody
Method: as §1, §3

[17] = molecular target: T4, human CD1c expressed on HEK-293 cells; assay: flow cytometry, HEK-293 cells, 1 µg/ml antibody
Method: as §4, §6

[18] = molecular target: T5, human CD1d expressed on HEK-293 cells; assay: flow cytometry, HEK-293 cells, 1 µg/ml antibody
Method: as §4, §6

[19] = molecular target: T7, human CD1a expressed on cells; assay: flow cytometry, HEK-293 cells, 1 µg/ml antibody
Method: as §4, §6

[20] = molecular target: T6, human CD1b expressed on HEK-293 cells; assay: flow cytometry, HEK-293 cells, 1 µg/ml antibody
Method: as §4, §6

[21] = molecular target: T8, Cynomolgus monkey CD1a protein; assay: ELISA, 0.1 µg/ml antibody
[22] = molecular target: T7, human CD1a expressed on cells; assay: flow cytometry, C1R cells, 10 µg/ml antibody
Method: as §4, §5

[23] = molecular target: T8, Cynomolgus monkey CD1a protein; assay: ELISA, 1 µg/ml antibody
[24] = molecular target: T7, human CD1a expressed on cells; assay: flow cytometry, MOLT4 cells, 0.316 µg/ml antibody
Method: as §7, §5

[25] = molecular target: Chinese variant CD1a protein (human) (UniProt P06126); assay: ELISA, 0.01 µg/ml antibody
[26] = molecular target: Chinese variant CD1a protein (human) (UniProt P06126); assay: ELISA, 1 µg/ml antibody
[27] = molecular target: T2, human CD1a protein (pool B); assay: ELISA, 10 µg/ml antibody
Method: as §1, §3

Chain of Chinese variant CD1a protein (human) (P06126 18-295, change not shown): as the sequence (P06126 18-295 limits assumed) above
T1 sequence (P06126 other isoform, or with tags, fused parts or gaps mutant limits assumed): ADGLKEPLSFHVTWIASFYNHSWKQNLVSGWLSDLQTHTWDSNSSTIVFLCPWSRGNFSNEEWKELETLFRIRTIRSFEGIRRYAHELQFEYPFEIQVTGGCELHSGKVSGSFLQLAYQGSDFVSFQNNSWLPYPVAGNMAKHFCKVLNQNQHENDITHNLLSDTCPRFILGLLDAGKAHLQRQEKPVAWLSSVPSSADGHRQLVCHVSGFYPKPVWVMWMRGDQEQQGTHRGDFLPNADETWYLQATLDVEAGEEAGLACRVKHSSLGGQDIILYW

B1: 77A (VR11851) (antibody, V domains shown)
VH: QSVEESGGRLVTPGTPLTLTCTVSGFSLSSYAMSWVRQAPGKGLEWIGIISSSGTTYYASWAKGRFTISKTSTTVDLKITSPTTEDTATYFCARVDYYSSGWGGLWGPGTLVTVSS
VL: AVEMTQTPASMSAAVGGTVTIKCQASEDIYSNLAWYQQKPGQPPKLLIYGASTLASGVPSRFKGSGSGTEYTLTISGVQCDDAATYYCQCTYDTSSYGNTFGGGTEMVVE
notes: also called OX77a; antibody 77a
Optical Density (OD) [1]: 1.28 OD
Optical Density (OD) [2]: 0.99 OD
Optical Density (OD) [3]: 1.34 OD
Optical Density (OD) [4]: 1.09 OD
Fluorescence Intensity Geomean (normalized to background) [5]: 5.7 fold over background
binding result [6]: no binding (tested: 100 µg/ml (highest tested))
binding result [7]: no binding (tested: 100 µg/ml (highest tested))
binding result [8]: no binding (tested: 100 µg/ml (highest tested))
Kd [9]: 0.24 nM
koff [9]: 0.000113 s⁻¹
kon [9]: 469000 M⁻¹ s⁻¹
Optical Density (OD) [10]: 1.28 OD
Optical Density (OD) [11]: 1.25 OD
Fluorescence Intensity Geomean (normalized to background) [12]: 1.3 fold over background
Fluorescence Intensity Geomean (normalized to background) [13]: 1.4 fold over background
Fluorescence Intensity Geomean (normalized to background) [14]: 4.1 fold over background
Optical Density (OD) [15]: 0.1 OD
Optical Density (OD) [16]: 1.36 OD
Fluorescence Intensity Geomean (normalized to background) [17]: 1 fold over background
Fluorescence Intensity Geomean (normalized to background) [18]: 1 fold over background
Fluorescence Intensity Geomean (normalized to background) [19]: 41.9 fold over background
Fluorescence Intensity Geomean (normalized to background) [20]: 1.1 fold over background
Optical Density (OD) [21]: 0.24 OD
Fluorescence Intensity Geomean (normalized to background) [22]: 2.3 fold over background
Optical Density (OD) [23]: 0.43 OD
Fluorescence Intensity Geomean (normalized to background) [24]: 15.2 fold over background
Optical Density (OD) [25]: 0.79 OD
Optical Density (OD) [26]: 0.78 OD
Optical Density (OD) [27]: 1.34 OD

B2: 111 (VR12113) (antibody, V domains shown)
VH: QSVEESGGRLVTPGTPLTLTCTASGFSLSTYAMSWVRQAPGKGLEWIGIISSSGSTYYASWAKGRFTISKTSTTVDLKITSPTTEDTATYFCARETWYWLDLWGQGTLVTVSS
VL: AVEMTQTPASVSAAVGGTVTINCQASEDIYSNLAWYQQKPGQPPKLLIYGASTLASGVPSRFKGSGSGTEYTLTISGVQCDDAATYYCQCAYDSSSYGTPFGGGTEVVVK
notes: also called OX111
Optical Density (OD) [1]: 1.32 OD
Optical Density (OD) [2]: 1.41 OD
Optical Density (OD) [3]: 1.14 OD
Optical Density (OD) [4]: 1.19 OD
Fluorescence Intensity Geomean (normalized to background) [5]: 25.8 fold over background
binding result [6]: no binding (tested: 100 µg/ml (highest tested))
binding result [7]: no binding (tested: 100 µg/ml (highest tested))
binding result [8]: no binding (tested: 100 µg/ml (highest tested))
Kd [9]: ≤ 0.0312 nM
koff [9]: < 1e-05 s⁻¹
kon [9]: 321000 M⁻¹ s⁻¹
Optical Density (OD) [10]: 1.41 OD
Optical Density (OD) [11]: 1.1 OD
Fluorescence Intensity Geomean (normalized to background) [12]: 7 fold over background
Fluorescence Intensity Geomean (normalized to background) [13]: 16.3 fold over background
Fluorescence Intensity Geomean (normalized to background) [14]: 9.3 fold over background
Optical Density (OD) [15]: 0.48 OD
Optical Density (OD) [16]: 1.06 OD
Fluorescence Intensity Geomean (normalized to background) [17]: 1.1 fold over background
Fluorescence Intensity Geomean (normalized to background) [18]: 1.1 fold over background
Fluorescence Intensity Geomean (normalized to background) [19]: 42 fold over background
Fluorescence Intensity Geomean (normalized to background) [20]: 1 fold over background
Optical Density (OD) [21]: 0.66 OD
Fluorescence Intensity Geomean (normalized to background) [22]: 11.7 fold over background
Optical Density (OD) [23]: 0.69 OD
Fluorescence Intensity Geomean (normalized to background) [24]: 27.3 fold over background
Optical Density (OD) [25]: 1.33 OD
Optical Density (OD) [26]: 1.44 OD
Optical Density (OD) [27]: 1.12 OD

B3: 110 (VR12112) (antibody, V domains shown)
VH: QSVEESGGRLVTPGTPLTLTCTVSGFSLSSYAMIWVRQAPGKGLEWIGIINSSDNTHYATWAKGRFTISKTSTTVDLKITSPTTEDTATYFCARDPYDYGYGWYFDLWGPGTLVTVSS
VL: AQVLTQTPSPVSAAVGGTVTINCQASQSVFNNKNLAWYQQKPGQPPKLLIYKASTLASGVSSRFKGSGSGTQFALTISGVQCDDAATYYCQGEFSCSSTDCVTFGGGTEVVVK
notes: also called OX110; antibody 110
Optical Density (OD) [1]: 1.24 OD
Optical Density (OD) [2]: 1.75 OD
Optical Density (OD) [4]: 0.73 OD
Fluorescence Intensity Geomean (normalized to background) [5]: 3.3 fold over background
binding result [6]: no binding (tested: 100 µg/ml (highest tested))
binding result [7]: no binding (tested: 100 µg/ml (highest tested))
binding result [8]: no binding (tested: 100 µg/ml (highest tested))
Kd [9]: 1.97 nM
Optical Density (OD) [10]: 1.53 OD
Optical Density (OD) [11]: 0.81 OD
Fluorescence Intensity Geomean (normalized to background) [12]: 6.2 fold over background
Fluorescence Intensity Geomean (normalized to background) [13]: 13.6 fold over background
Fluorescence Intensity Geomean (normalized to background) [14]: 14.7 fold over background
Optical Density (OD) [15]: 0.22 OD
Fluorescence Intensity Geomean (normalized to background) [17]: 1.1 fold over background
Fluorescence Intensity Geomean (normalized to background) [18]: 1.1 fold over background
Fluorescence Intensity Geomean (normalized to background) [19]: 49.2 fold over background
Fluorescence Intensity Geomean (normalized to background) [20]: 1.1 fold over background
Optical Density (OD) [21]: 0.53 OD
Fluorescence Intensity Geomean (normalized to background) [22]: 8.3 fold over background
Optical Density (OD) [23]: 0.94 OD
Fluorescence Intensity Geomean (normalized to background) [24]: 27.1 fold over background
Optical Density (OD) [25]: 1.4 OD
Optical Density (OD) [26]: 1.79 OD
Optical Density (OD) [27]: 1.28 OD
